Experimental data from publication PMC12355088, “Structural analysis of TRIM family PRYSPRY domains and its implications for E3-ligand design” (Journal of Structural Biology: X, 2025).

Target: the molecule itself
Assay: SEC; Superdex-75 column, elution compared with marker proteins (BSA, ovalbumin, carbonic anhydrase, ribonuclease A)

B1: TRIM36 PRYSPRY domain (domain or fragment, human)
chain: TPPAPVFSFLFDEKCGYNNEHLLLNLKRDRVESRAGFNLLLAAERIQVGYYTSLDYIIGDTGITKGKHFWAFRVEPYSYLVKVGVASSDKLQEWLRSPRDAVSPRYEQDSGHDSGSEDACFDSSQPFTLVTIGMQKFFIPKSPTSSNEPENRVLPMPTSIGIFLDCDKGKVDFYDMDQMKCLYERQVDCSHTLYPAFALMGSGGIQLEEPITAKYLEYQEDM
notes: PRYSPRY domain of human TRIM36, with an additional C-terminal helix; theoretical MW of the dimer 52.4 kDa; Cloned into pNIC-CTH0; also called TRIM36 domain
stoichiometry N: 2
